The record followed here is patent publication US20140004120A1 (Daiichi Sankyo, published 2014).

For the test, the target named is T1, rsDR5 (recombinant human DR5 extracellular domain protein) (human, UniProt O14763 56-183).
T1 construct: the two may be offset
The test is described as follows: gel filtration (Superdex 200) of the mixture of cB273 Fab fragment and rsDR5; complex then crystallized.

B1: cB273 Fab fragment (Fab, V domains shown)
VH: EVQLQQSGPELVKPGASVKISCKASGYSFIGYFMNWMKQSHGKSLEWIGRFNPYNGDTFYNQKFKGKATLTVDKSSTTAHMELLSLTSEDSAVYFCGRSAYYFDSGGYFDYWGQGTTLTVSS
VL: DVVMTQTPLSLPVSLGDQASISCRSSQSLVHSNGNTYLHWYLQKPGQSPKLLIYKVSNRFSGVPDRFSGSGSGTDFTLKISRVEAEDLGIYFCSQSTHVPWTFGGGTKLEIKR
For the molecule B1, the binding result was “binds”.
